As a reminder, the Kd is the constant that tells how readily two partners part at equilibrium. Higher therefore signals lower affinity.

Substitutions are numbered along the chain they refer to.

Consider one molecule from article PMC8660799, “Cryo-EM reveals unique structural features of the FhuCDB Escherichia coli ferrichrome importer” (Communications Biology, 2021).

The target of one assay is T1, FhuCB wild-type (Escherichia coli, UniProt P07821 1-265; P06972 1-660, red-tris-NTA 2nd generation dye on the His-tag).
T1 construct: FhuC, ATPase subunit, Escherichia coli; whole operon cloned from the genome, FhuD gene deleted; thrombin site after the His-tag; FhuB, membrane subunit, Escherichia coli, 660 residues; also called FhuCB subcomplex; source: E. coli BL21(DE3) C43, purified (TALON, Superose 6 gel filtration) in LMNG; not shown: His-tag, N-terminal, kept; copies: 2 + 1
T1 sequence (looked up) 1: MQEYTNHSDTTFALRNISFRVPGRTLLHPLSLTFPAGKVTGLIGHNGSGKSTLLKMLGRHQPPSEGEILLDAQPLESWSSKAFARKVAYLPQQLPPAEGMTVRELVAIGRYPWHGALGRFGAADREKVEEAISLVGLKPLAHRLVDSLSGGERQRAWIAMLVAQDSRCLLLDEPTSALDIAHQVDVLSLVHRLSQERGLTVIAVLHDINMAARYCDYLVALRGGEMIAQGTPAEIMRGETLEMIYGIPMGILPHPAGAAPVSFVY
T1 sequence (looked up) 2: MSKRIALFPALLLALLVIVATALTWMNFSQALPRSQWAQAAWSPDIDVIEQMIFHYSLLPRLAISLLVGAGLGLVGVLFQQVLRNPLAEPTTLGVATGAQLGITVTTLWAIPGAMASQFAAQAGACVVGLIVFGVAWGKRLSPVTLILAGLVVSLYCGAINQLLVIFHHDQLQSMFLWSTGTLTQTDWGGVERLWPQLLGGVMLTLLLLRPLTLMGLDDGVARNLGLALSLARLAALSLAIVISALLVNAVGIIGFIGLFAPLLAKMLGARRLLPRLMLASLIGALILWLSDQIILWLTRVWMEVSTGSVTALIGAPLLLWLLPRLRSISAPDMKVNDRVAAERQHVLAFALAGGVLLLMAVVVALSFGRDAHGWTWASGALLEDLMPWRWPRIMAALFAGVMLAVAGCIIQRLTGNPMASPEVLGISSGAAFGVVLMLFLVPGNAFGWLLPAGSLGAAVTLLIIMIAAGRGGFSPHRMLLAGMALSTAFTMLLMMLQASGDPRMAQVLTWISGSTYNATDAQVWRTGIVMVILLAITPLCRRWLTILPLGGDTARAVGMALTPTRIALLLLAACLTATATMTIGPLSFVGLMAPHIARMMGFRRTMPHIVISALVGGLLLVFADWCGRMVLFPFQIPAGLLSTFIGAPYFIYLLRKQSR
Put plainly: MST; 40 nM FhuCB in detergent, His-tag labelled with red-tris-NTA 2nd generation dye; serial dilution of 30 μM FhuD without substrate; no ATP-Mg; Monolith NT.115pico, 20% LED power, medium MST power. The conditions noted are these: both partners purified.

The target in another assay is T2, FhuCB with FhuB E304A (Escherichia coli, UniProt P07821 1-265; P06972 1-660, E304A, red-tris-NTA 2nd generation dye on the His-tag).
T2 construct: FhuC, ATPase subunit, Escherichia coli; as in Dm2; FhuB, membrane subunit, Escherichia coli, 660 residues; Mutant made on the FhuCB-pET15b construct by direct mutagenesis; source: E. coli BL21(DE3) C43, purified (TALON, Superose 6 gel filtration) in LMNG; not shown: His-tag, N-terminal, kept; copies: 2 + 1
T2 sequence (looked up) 1: T1 sequence (looked up) 1
T2 sequence (looked up) 2: T1 sequence (looked up) 2 with E304A
Briefly: MST; 40 nM FhuCB (wild type or FhuB mutant) in detergent, His-tag labelled with red-tris-NTA 2nd generation dye; serial dilution of 1.6 μM FhuD with substrate ferrichrome; with ATP-Mg; Monolith NT.115pico, 20% LED power, medium MST power. The conditions noted are these: both partners purified.

B1: FhuD (natural protein, Escherichia coli)
chain: AAIDPNRIVALEWLPVELLLALGIVPYGVADTINYRLWVSEPPLPDSVIDVGLRTEPNLELLTEMKPSFMVWSAGYGPSPEMLARIAPGRGFNFSDGKQPLAMARKSLTEMADLLNLQSAAETHLAQYEDFIRSMKPRFVKRGARPLLLTTLIDPRHMLVFGPNSLFQEILDEYGIPNAWQGETNFWGSTAVSIDRLAAYKDVDVLCFDHDNSKDMDALMATPLWQAMPFVRAGRFQRVPAVWFYGATLSAMHFVRVLDNAIGGKA
notes: In 'FhuD-ferrichrome' the protein was loaded with the small molecule ferrichrome; also called FhuD-ferrichrome (when loaded with ferrichrome)
As to B1, the results for the Kd with FhuCB wild-type and with FhuCB with FhuB E304A were 1620 nM and 15.1 nM, respectively.
